Assay results taken from patent US20030082173A1 (ST JUDE CHILDREN S RESEARCH HOSPITAL, published 2003).

Biological target: T1, calcium-signal modulating cyclophilin ligand (CAML), human, full length (human, UniProt P49069 1-296)
T1 construct: mature; In the co-immunoprecipitation it was expressed from pBJ5 in 293T cells
T1 sequence (looked up): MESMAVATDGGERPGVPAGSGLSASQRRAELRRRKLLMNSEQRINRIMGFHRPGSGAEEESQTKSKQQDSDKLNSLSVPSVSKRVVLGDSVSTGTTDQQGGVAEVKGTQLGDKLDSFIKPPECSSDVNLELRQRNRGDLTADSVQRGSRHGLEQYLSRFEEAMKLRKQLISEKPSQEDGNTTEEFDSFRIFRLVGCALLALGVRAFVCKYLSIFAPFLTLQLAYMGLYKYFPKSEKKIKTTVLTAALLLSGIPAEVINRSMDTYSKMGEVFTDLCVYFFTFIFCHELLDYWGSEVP
Experiment: yeast two-hybrid screen of a human B-lymphocyte cDNA library with full-length CAML as bait

B1: Transmembrane Activator and CAML-Interactor protein TACI-1 (human, full length, 293 amino acids) (receptor)
chain: MSGLGRSRRGGRSRVDQEERFPQGLWTGVAMRSCPEEQYWDPLLGTCMSCKTICNHQSQRTCAAFCRSLSCRKEQGKFYDHLLRDCISCASICGQHPKQCAYFCENKLRSPVNLPPELRRQRSGEVENNSDNSGRYQGLEHRGSEASPALPGLKLSADQVALVYSTLGLCLCAVLCCFLVAVACFLKKRGDPCSCQPRSRPRQSPAKSSQDHAMEAGSPVSTSPEPVETCSFCFPECRAPTQESAVTPGTPDPTCAGRWGCHTRTTVLQPCPHIPDSGLGIVCVPAQEGGPGA
notes: Untagged full-length protein expressed from pBJ5 on TAg Jurkat T cells for flow cytometry and reporter assays; In the yeast two-hybrid tests it was fused to a GAL4 domain (pACT or pAS1); also called TACI protein; TCB
binding result: binds
